Test results from US20080213836A1.

What was measured:
[1] = molecular target: Medaka EP-2 serine protease domain (Oryzias latipes (Japanese Medaka)); test: cell-based or functional assay
[2] = molecular target: Medaka EP-1 serine protease domain (wild-type) (Oryzias latipes (Japanese Medaka)); test: cell-based or functional assay
Medaka EP-1 serine protease domain (wild-type) (Oryzias latipes (Japanese Medaka)), sequence (chain, as listed by the source limits assumed): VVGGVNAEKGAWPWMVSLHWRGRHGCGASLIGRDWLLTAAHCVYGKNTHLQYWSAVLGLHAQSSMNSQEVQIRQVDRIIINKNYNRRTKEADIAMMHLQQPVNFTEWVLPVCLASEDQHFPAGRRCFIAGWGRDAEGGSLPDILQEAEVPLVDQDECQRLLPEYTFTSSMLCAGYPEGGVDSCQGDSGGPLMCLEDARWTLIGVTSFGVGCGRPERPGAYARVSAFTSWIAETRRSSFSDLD

Work on SBTI (from UniProt P01070 25-205) yielded an Inhibition (%) of GD4K-βNA hydrolysis at 0.1 mg/ml [1] of 99% and an Inhibition (%) of GD4K-βNA hydrolysis at 0.1 mg/ml [2] of 99%.
